Laboratory results published in patent publication US20180141975A1 (VIROGIN BIOTECH CANADA, published 2018).

B1: WT peptide (SEQ ID NO:1, WYRMSPSNQT) (peptide)
peptide: WYRMSPSNQT
notes: Chemically synthesized peptide found by a peptide array method; also called human WT peptide

Experiments:
[1] = target: T1, recombinant human PD-L1 Fc (human, UniProt Q9NZQ7 19-239); test: summary of the examples (competition ELISA, peptide array)
T1 construct: Recombinant reagent; not shown: Fc part

[2] = target: T1, recombinant human PD-L1 Fc; test: competition ELISA, peptides and combinations at 3 and 10 uM against human PD-1 Fc on coated human PD-L1 Fc (FIG. 5A)
[3] = target: T2, mouse PD-L1 Fc (mouse, UniProt Q9EP73 19-238); test: competition ELISA, peptide at 3 and 10 uM against mouse PD-1 Fc on coated mouse PD-L1 Fc (FIG. 9A)
T2 construct: Plate-coated reagent; not shown: Fc part
T2 sequence (Q9EP73 19-238 limits assumed): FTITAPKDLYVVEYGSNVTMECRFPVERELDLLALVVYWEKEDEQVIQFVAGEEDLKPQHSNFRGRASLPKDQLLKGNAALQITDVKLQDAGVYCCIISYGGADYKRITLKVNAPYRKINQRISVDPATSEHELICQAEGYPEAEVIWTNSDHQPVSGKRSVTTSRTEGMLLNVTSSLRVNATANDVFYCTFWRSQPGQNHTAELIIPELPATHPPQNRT
Method: More specifically, mouse and human WT and TF peptides (3 and 10 μM) were mixed with recombinant mouse PD-1 Fc and bound to a mouse PD-L1 Fc coated 96-well Immuno Maxisorp flat bottom plate. Binding was detected via a biotinylated anti-mouse PD-1 antibody, streptavidin-horseradish peroxidase (HRP), and 3,3′, 5,5′ Tetramethylbenzidine (TMB) substrate. Absorbance measurements were collected at 450 nm via a plate reader. The increased percent (%) of mouse (and human) PD-1/PD L1 inhibition was compared to a control (no peptide) sample. […] The differences between the human and mouse peptides are illustrated in FIG. 9B.

T1 sequence (Q9NZQ7 19-239 limits assumed): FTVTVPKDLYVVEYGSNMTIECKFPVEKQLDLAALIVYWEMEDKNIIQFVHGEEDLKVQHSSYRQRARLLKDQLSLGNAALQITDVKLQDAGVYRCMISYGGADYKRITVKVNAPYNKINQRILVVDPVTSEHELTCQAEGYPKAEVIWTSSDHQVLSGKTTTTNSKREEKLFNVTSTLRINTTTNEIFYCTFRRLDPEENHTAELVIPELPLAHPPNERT

Row | Binder | binding result [2] | binding result [3] | other results
1 | B1 | – | – | binding result [1]: binds
2 | YYRMSPSNQT (A derivative of the WT peptide (W1Y)) [YT peptide (SEQ ID NO:28, YYRMSPSNQT)] | binds | – | –
3 | EYRMSPSNQT (A derivative of the WT peptide (W1E)) [ET peptide (SEQ ID NO:25, EYRMSPSNQT)] | binds | – | –
4 | WNRLSPSNQT [Mouse WT peptide (SEQ ID NO:35, WNRLSPSNQT)] | – | binds | –
5 | TRYPSPSPKPEGRF [Mouse TF peptide (SEQ ID NO:36, TRYPSPSPKPEGRF)] | – | binds | –
